Experimental data from the supplement of paper PMC10724198.
± gives the standard deviation of the averaged measurements.

Test system: Saccharomyces cerevisiae
Test: protein stability index of tFT-peptide fusion (C-terminal peptide) (PSI (0-1 scale)); higher = more stable (slower turnover)
Settings: temperature: 30 C
Protocol: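 MPS profiling in S. cerevisiae of the yeast C-terminome library: the last 12 aa of each annotated ORF are fused to the C-terminus of a sfGFP-mCherry timer, after a GGGS linker. Cells are FACS-sorted into 8 mCherry/sfGFP bins and deep-sequenced. PSI runs from 0 (unstable) to 1 (stable); wild type and das1Δ backgrounds, two technical replicates each.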

[1] = genetic background: das1 deletion

Sequence	protein stability index [1]	protein stability index (genetic background: wild type)
GNLMRSSNVLEK [SLO1 C-terminal 12 aa]	0.685 ± 0.0076	0.7 ± 0.016
GNSDGSVEVTEK [RKI1 C-terminal 12 aa]	0.6897 ± 0.0053	0.705 ± 0.03
GPLLDYLSSDED [CWC2 C-terminal 12 aa]	0.7139 ± 0.0039	0.693 ± 0.0055
GQHTKTTGRRRA [RPS18A C-terminal 12 aa]	0.6995 ± 0.0039	0.686 ± 0.032
GQIVIVHYLYDR [YOR218C C-terminal 12 aa]	0.422 ± 0.018	0.445 ± 0.051
GQPPAPFRLRSD [SDS3 C-terminal 12 aa]	0.7109 ± 0.00038	0.709 ± 0.049
GQSLTNTGGGCC [YPT1 C-terminal 12 aa]	0.707 ± 0.011	0.6389 ± 0.00065
GRVHGEEDPTKK [HSP12 C-terminal 12 aa]	0.707 ± 0.024	0.6953 ± 0.0032
GSLLLYLLLKIL [INP54 C-terminal 12 aa]	0.34 ± 0.018	0.119 ± 0.0017
GSNAEEDDDLYS [CDC48 C-terminal 12 aa]	0.7027 ± 0.0045	0.653 ± 0.03
GSPNSLLLNIGR [PHB1 C-terminal 12 aa]	0.698 ± 0.015	0.719 ± 0.016
GTKVDDDKKNKS [SPP2 C-terminal 12 aa]	0.7041 ± 0.0011	0.663 ± 0.03
GVFSKSSAELRF [YDL016C C-terminal 12 aa]	0.715 ± 0.013	0.706 ± 0.023
GVYMELVKVLFG [YLR177W C-terminal 12 aa]	0.607 ± 0.015	0.631 ± 0.013
GWDLRFEEDPSA [TRP5 C-terminal 12 aa]	0.731 ± 0.018	0.6905 ± 0.0042
GYIVGVAALLFL [ANS1 C-terminal 12 aa]	0.428 ± 0.011	0.4532 ± 0.004
GYSPKPISKKEE [ALE1 C-terminal 12 aa]	0.719 ± 0.011	0.648 ± 0.012

Sequence	protein stability index [1]	protein stability index (genetic background: wild type)
GYWEDVFVHLAL [HMLALPHA1 C-terminal 12 aa]	0.7685 ± 0.0061	0.757 ± 0.012
HDELKYPVDMVI [PDR17 C-terminal 12 aa]	0.705 ± 0.022	0.757 ± 0.058
HELKTHLPLNLI [SMT1 C-terminal 12 aa]	0.707 ± 0.018	0.697 ± 0.037
HEVQNAEQEVAQ [MAK16 C-terminal 12 aa]	0.673 ± 0.0074	0.681 ± 0.034
HHLTYLPSVPSL [MMO1 C-terminal 12 aa]	0.715 ± 0.025	0.71 ± 0.053
HHNQIGVPRVEN [GID8 C-terminal 12 aa]	0.679 ± 0.013	0.674 ± 0.011
HKELLAKLEGSD [HNT1 C-terminal 12 aa]	0.688 ± 0.0052	0.703 ± 0.025
HNLHSYEKRLYN [IMD4 C-terminal 12 aa]	0.702 ± 0.025	0.672 ± 0.013
HQKTKTLASLSI [NUP49 C-terminal 12 aa]	0.707 ± 0.014	0.631 ± 0.0093
HQNENMFLTELY [YDL247W-A C-terminal 12 aa]	0.7214 ± 0.0031	0.707 ± 0.067
HTRQGNITQTKY [YKL100W-A C-terminal 12 aa]	0.698 ± 0.017	0.692 ± 0.043
HYEAVRANFEGA [PEX6 C-terminal 12 aa]	0.7023 ± 0.0047	0.724 ± 0.012
IADASSLSWNMK [LEM3 C-terminal 12 aa]	0.697 ± 0.038	0.719 ± 0.011
IAEIASAVDKYS [MHT1 C-terminal 12 aa]	0.7183 ± 0.0018	0.726 ± 0.047
IAIGFGVGITRE [BUD8 C-terminal 12 aa]	0.688 ± 0.035	0.739 ± 0.022
IARPFELKYFGR [FCY21 C-terminal 12 aa]	0.7199 ± 0.006	0.718 ± 0.001
IATIENKFDFEI [YCR099C C-terminal 12 aa]	0.712 ± 0.013	0.694 ± 0.042
